In the supplement of paper PMC10567573:

B1: SNX3 (parent)
chain: FLRQLPFRGDDGIFDDNFIEERKQ

Variants of: B1
Assay: protein stability index of a GFP-peptide fusion (GPS, HEK-293T) (PSI 1-6); higher = more stable
Details: c terminus: a fixed tail appended
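Also: lentivirally expressed fusions sorted by FACS into six bins by GFP to DsRed ratio, PSI derived from sequencing read proportions per bin multiplied by bin number.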

Variant | protein stability index
FLRQLPFRGDDGLFDDNFIEERKQ [I13L] | 3.26
FLRQLPFRGDDGMFDDNFIEERKQ [I13M] | 3.03
FLRQLPFRGDDGNFDDNFIEERKQ [I13N] | 3.28
FLRQLPFRGDDGSFDDNFIEERKQ [I13S] | 3.8
FLRQLPFRGDDGFFDDNFIEERKQ [I13F] | 3.03
FLRQLPFRGDDGWFDDNFIEERKQ [I13W] | 2.72
FLRQLPFRGDDGQFDDNFIEERKQ [I13Q] | 4.03
FLRQLPFRGDDGYFDDNFIEERKQ [I13Y] | 3.83
FLRQLPFRGDDGGFDDNFIEERKQ [I13G] | 3.52
FLRQLPFRGDDGHFDDNFIEERKQ [I13H] | 3.67
FLRQLPFRGDDGEFDDNFIEERKQ [I13E] | 4
FLRQLPFRGDDGPFDDNFIEERKQ [I13P] | 4.03
FLRQLPFRGDDGKFDDNFIEERKQ [I13K] | 4.7
FLRQLPFRGDDGVFDDNFIEERKQ [I13V] | 3.3
FLRQLPFRGDDGTFDDNFIEERKQ [I13T] | 3.48
FLRQLPFRGDDGAFDDNFIEERKQ [I13A] | 4.22
FLRQLPFRGDDGDFDDNFIEERKQ [I13D] | 4.24
FLRQLPFRGDDGIFDDDFIEERKQ [N17D] | 3.83
FLRQLPFRGDDGIFDDCFIEERKQ [N17C] | 3.27
FLRQLPFRGDDGIFDDEFIEERKQ [N17E] | 4.18
FLRQLPFRGDDGIFDDPFIEERKQ [N17P] | 3.23
FLRQLPFRGDDGIFDDGFIEERKQ [N17G] | 4.12
FLRQLPFRGDDGIFDDKFIEERKQ [N17K] | 3.98
FLRQLPFRGDDGIFDDIFIEERKQ [N17I] | 2.7

Variant | protein stability index
FLRQLPFRGDDGIFDDQFIEERKQ [N17Q] | 3.71
FLRQLPFRGDDGIFDDHFIEERKQ [N17H] | 3.41
FLRQLPFRGDDGIFDDRFIEERKQ [N17R] | 2.61
FLRQLPFRGDDGIFDDTFIEERKQ [N17T] | 3.22
FLRQLPFRGDDGIFDDWFIEERKQ [N17W] | 1.94
FLRQLPFRGDDGIFDDLFIEERKQ [N17L] | 2.28
FLRQLPFRGDDGIFDDMFIEERKQ [N17M] | 2.79
FLRQLPFRGDDGIFDDVFIEERKQ [N17V] | 2.97
FLRQLPFRGDDGIFDDAFIEERKQ [N17A] | 2.54
FLRQLPFRGDDGIFDDFFIEERKQ [N17F] | 2.58
FLRQLPFRGDDGIFDDYFIEERKQ [N17Y] | 2.38
FLRQLPFRGDDGIFDDNSIEERKQ [F18S] | 4.3
FLRQLPFRGDDGIFDDNIIEERKQ [F18I] | 3.08
FLRQLPFRGDDGIFDDNVIEERKQ [F18V] | 3.67
FLRQLPFRGDDGIFDDNWIEERKQ [F18W] | 3.2
FLRQLPFRGDDGIFDDNKIEERKQ [F18K] | 3.44
FLRQLPFRGDDGIFDDNLIEERKQ [F18L] | 3.75
FLRQLPFRGDDGIFDDNHIEERKQ [F18H] | 3.19
FLRQLPFRGDDGIFDDNTIEERKQ [F18T] | 3.96
FLRQLPFRGDDGIFDDNMIEERKQ [F18M] | 3.79
FLRQLPFRGDDGIFDDNDIEERKQ [F18D] | 4.12
FLRQLPFRGDDGIFDDNCIEERKQ [F18C] | 4.21
FLRQLPFRGDDGIFDDNEIEERKQ [F18E] | 4.47
FLRQLPFRGDDGIFDDNAIEERKQ [F18A] | 4.56

Variant | protein stability index
FLRQLPFRGDDGIFDDNPIEERKQ [F18P] | 3.62
FLRQLPFRGDDGIFDDNRIEERKQ [F18R] | 3.9
FLRQLPFRGDDGIFDDNQIEERKQ [F18Q] | 3.94
FLRQLPFRGDDGIFDDNYIEERKQ [F18Y] | 3.27
FLRQLPFRGDDGIFDDNNIEERKQ [F18N] | 4.16
FLRQLPFRTDDGIFDDNFIEERKQ [G9T] | 2.97
FLRQLPFRYDDGIFDDNFIEERKQ [G9Y] | 2.53
FLRQLPFRSDDGIFDDNFIEERKQ [G9S] | 3.41
FLRQLPFRWDDGIFDDNFIEERKQ [G9W] | 3.02
FLRQLPFRRDDGIFDDNFIEERKQ [G9R] | 3.27
FLRQLPFRVDDGIFDDNFIEERKQ [G9V] | 3.08
FLRQLPFRGDDGIFCDNFIEERKQ [D15C] | 2.99
FLRQLPFRGDDGIFEDNFIEERKQ [D15E] | 3.18
FLRQLPFRGDDGIFPDNFIEERKQ [D15P] | 3.04
FLRQLPFRGDDGIFLDNFIEERKQ [D15L] | 3.28
FLRQLPFRGDDGIFSDNFIEERKQ [D15S] | 3.15
FLRQLPFRGDDGIFYDNFIEERKQ [D15Y] | 2.43
FLRQLPFRGDDGIFMDNFIEERKQ [D15M] | 3.28
FLRQLPFRGDDGIFADNFIEERKQ [D15A] | 3.45
FLRQLPFRGDDGIFFDNFIEERKQ [D15F] | 2.74
FLRQLPFRGDDGIFWDNFIEERKQ [D15W] | 2.89
FLRQLPFRGDDGIFIDNFIEERKQ [D15I] | 2.53
FLRQLPFRGDDGIFQDNFIEERKQ [D15Q] | 2.97
FLRQLPFRGDDGIFNDNFIEERKQ [D15N] | 2.75

Variant | protein stability index
FLRQLPFRGDDGIFGDNFIEERKQ [D15G] | 3.12
FLRQLPFRGDDGIFTDNFIEERKQ [D15T] | 3.94
FLRQLPFRGDDGIFVDNFIEERKQ [D15V] | 2.65
FLRQLPFRGDDGIFRDNFIEERKQ [D15R] | 2.71
FLRQLPFRGDDGIFHDNFIEERKQ [D15H] | 3.06
FLRQLPFRGDDGIFKDNFIEERKQ [D15K] | 2.96
FLRQLPFRGDIGIFDDNFIEERKQ [D11I] | 2.53
FLRQLPFRGDYGIFDDNFIEERKQ [D11Y] | 2.32
FLRQLPFRGDLGIFDDNFIEERKQ [D11L] | 2.71
FLRQLPFRGDFGIFDDNFIEERKQ [D11F] | 2.74
FLRQLPFRGDRGIFDDNFIEERKQ [D11R] | 2.46
FLRQLPFRGDAGIFDDNFIEERKQ [D11A] | 4.01
FLRQLPFRGDQGIFDDNFIEERKQ [D11Q] | 3.16
FLRQLPFRGDPGIFDDNFIEERKQ [D11P] | 4.1
FLRQLPFRGDEGIFDDNFIEERKQ [D11E] | 2.9
FLRQLPFRGDWGIFDDNFIEERKQ [D11W] | 1.94
FLRQLPFRGDCGIFDDNFIEERKQ [D11C] | 2.91
FLRQLPFRGDMGIFDDNFIEERKQ [D11M] | 3.05
FLRQLPFRGDHGIFDDNFIEERKQ [D11H] | 3.15
FLRQLPFRGDSGIFDDNFIEERKQ [D11S] | 4.12
FLRQLPFRGDNGIFDDNFIEERKQ [D11N] | 3.01
FLRQLPFRGDVGIFDDNFIEERKQ [D11V] | 4.03
